Here are results for two molecules from patent US20100184636A1 (POSTECH ACADEMY INDUSTRY FOUNDATION, published 2010).

One assay deals with myc-mTOR^wt (human, UniProt P42345 1-2549). The assay is described as follows: co-IP of myc-mTOR^wt with PLD2 fragments (FIG. 5). As to the method:
(§1) After harvesting COS7 cells, total extracts were prepared by brief sonication in ice-cold lysis buffer (40 mM HEPES pH7.5, 120 mM NaCl, 1 mM EDTA, 10 mM pyrophosphate, 10 mM glycerophosphate, 50 mM NaF, 1.5 mM Na₃VO₄, 0.5% CHAPS, 1 mM PMSF, protease inhibitor cocktails). Clarified extracts were mixed with 2 μg of the respective antibodies. Then protein A-Sepharose beads were added to isolate the antibody complex. After four washings with lysis buffer, the final immunoprecipitates were washed once with wash buffer (50 mM HEPES pH7.5, 150 mM NaCl), and then subjected to SDS-PAGE using Hyperfilm (Amersham Pharmacia Biotech), nitrocellulose membranes (Watmann), Power supply (Amersham Pharmacia Biotech), Electrophoretic Transfer unit (Hoefer Scientific Instruments), and ECL™ (Amersham Pharmacia Biotech).

In assay [1] the target is T1, phospholipase D2, wild type (PLD2^wt) (Homo sapiens, UniProt O14939 1-933).
T1 construct: also called recombinant PLD2; hPLD2
The experiment in a line: co-IP with anti-HA antibody of HA-raptor constructs with PLD2^wt (FIG. 11). As to the method:
as §1

B1: PLD2^ΔN308 (enzyme)
chain: LAQGPGRDFLQLHRHDSYAPPRPGTLARWFVNGAGYFAAVADAILRAQEEIFITDWWLSPEVYLKRPAHSDDWRLDIMLKRKAEEGVRVSILLFKEVELALGINSGYSKRALMLLHPNIKVMRHPDQVTLWAHHEKLLVVDQVVAFLGGLDLAYGRWDDLHYRLTDLGDSSESAASQPPTPRPDSPATPDLSHNQFFWLGKDYSNLITKDWVQLDRPFEDFIDRETTPRMPWRDVGVVVHGLPARDLARHFIQRWNFTKTTKAKYKTPIYPYLLPKSTSTANQLPFTLPGGQCTTVQVLRSVDRWSAGTLENSILNAYLHTIRESQHFLYIENQFFISCSDGRTVLNKVGDEIVDRILKAHKQGWCYRVYVLLPLLPGFEGDISTGGGNSIQAILHFTYRTLCRGEYSILHRLKAAMGTAWRDYISICGLRTHGELGGHPVSELIYIHSKVLIADDRTVIIGSANINDRSLLGKRDSELAVLIEDTETEPSLMNGAEYQAGRFALSLRKHCFGVILGANTRPDLDLRDPICDDFFQLWQDMAESNANIYEQIFRCLPSNATRSLRTLREYVAVEPLATVSPPLARSELTQVQGHLVHFPLKFLEDESLLPPLGSKEGMIPLEVWT
notes: N-terminal 308 residues deleted, by analogy with ΔN184; also called ΔN308 PLD2
Regarding B1, the binding result with myc-mTOR^wt is “no binding”.

B2: HA-raptor^1020-1335 (other)
chain: NRNPGVPSVVKFHPFTPCIAVADKDSICFWDWEKGEKLDYFHNGNPRYTRVTAMEYLNGQDCSLLLTATDDGAIRVWKNFADLEKNPEMVTAWQGLSDMLPTTRGAGMVVDWEQETGLLMSSGDVRIVRIWDTDREMKVQDIPTGADSCVTSLSCDSHRSLIVAGLGDGSIRVYDRRMALSECRVMTYREHTAWVVKASLQKRPDGHIVSVSVNGDVRIFDPRMPESVNVLQIVKGLTALDIHPQADLIACGSVNQFTAIYNSSGELINNIKYYDGFMGQRVGAISCLAFHPHWPHLAVGSNDYYISVYSVEKRVR
notes: also called WD40 repeat region of raptor; not shown: HA tag
On to B2, for which the binding result in assay [1] is on record as “binds”.
